How the values were obtained:
[1] = tested on: TUF1 expression in adrenal glomerulosa cell dispersion; assay: Angiotensin II stimulation of adrenal glomerulosa cell dispersion (qPCR); type: cell-based, rat; conditions: overnight incubation, 5-500 ng/mL
Experimental: Adrenal glands were dissected from adult Sprague-Dawley rats (280 g-300 g) and kept in cold PBS. Following fat removal, adrenal capsules were detached and placed into a few drops of dispersion media (DMEM, 1.0 g/L glucose, 0.32% collagenase (type I, GIBCO, Life Technologies Corp., Carlsbad, Calif.), 4% BSA (Sigma-Aldrich Co., St. Louis, Mo.), 0.1% DNAse (Sigma-Aldrich Co., St. Louis, Mo.). Adrenal capsules were then minced with surgical scissors, transferred to dispersion media and incubated for 90 minutes in a 37° C. and 10% CO2 cell culture incubator with trituration at 15 minute intervals. Dispersed cells were filtered through a 100 μm wire mesh into wash media (DMEM, 0.4% BSA, 0.28% HEPES) and centrifuged at 200×g for 5 minutes. Following supernatant removal, cells were rinsed in wash media and resuspended in incubation media (wash media+7.65 mM CaCl2). Dissociated cells were seeded at 75,000 cells/well in a 24-well plate and incubated at 37° C. and 10% CO2 prior to stimulation. […]
Following overnight incubation, total RNA was isolated from capsular/glomerulosa cells using an RNA-isolation kit (Zymo Research Corp., Orange, Calif.) and concentrations were measured by absorbance at 260 nm ([…]) using a NanoDrop ND-1000 (NanoDrop Technologies, Inc., Wilmington, Del.). […]

p75^NTR = target: T1, p75^NTR (Homo sapiens, UniProt P08138); assay: Fluorescence-labeled TUF1 peptide binding to COS7 cells expressing p75NTR; conditions: labeled peptide 5 nM, 90 min, COS7 cells transfected with pCMV-SPORT6-p75
T1 construct: host or cells: COS7
T1 sequence (P08138 29-427): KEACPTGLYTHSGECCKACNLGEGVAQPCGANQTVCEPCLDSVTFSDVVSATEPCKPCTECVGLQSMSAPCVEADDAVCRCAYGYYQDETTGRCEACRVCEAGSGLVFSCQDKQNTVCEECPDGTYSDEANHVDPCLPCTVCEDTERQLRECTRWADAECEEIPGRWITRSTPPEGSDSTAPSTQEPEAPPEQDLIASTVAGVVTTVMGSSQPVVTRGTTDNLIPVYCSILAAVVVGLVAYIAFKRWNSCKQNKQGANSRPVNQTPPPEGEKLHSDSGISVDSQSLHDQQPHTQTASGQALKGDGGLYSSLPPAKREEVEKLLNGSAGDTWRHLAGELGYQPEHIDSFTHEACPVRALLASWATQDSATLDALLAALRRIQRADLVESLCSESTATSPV
Experimental: COS7 cells were seeded at 10,000 cells/well onto a 18 mm coverslip in a 12-well plate. Cells were allowed to settle overnight in a cell culture incubator (NuAire NU-8600, NuAire, Inc., Plymouth, Minn.) set at 37° C. and 5% CO2. Cells were transfected with pCMV-eGFP (Clontech Laboratories, Inc., Mountain View, Calif.) or pCMV-SPORT6-p75 (ATCC) using Fugene HD (Roche Diagnostics Corp., Indianapolis, Ind.) and were incubated overnight. The binding assays were carried out according to Horton et al. with modifications. Synthetic TUF1 peptides (TUF1[43-54] (SEQ ID NO:1) and TUF1[24-40] (SEQ ID NO:3) were generated (via Sigma Genosys, Sigma-Aldrich Co. St. Louis, Mo.) and were conjugated per manufacturer's recommendation with DyLight 549 NHS Ester (Thermo Fisher Scientific, Waltham, Mass.), which have similar spectra to Cy3 dye. Unconjugated dye was removed with a dye removal column (Thermo Fisher Scientific, Waltham, Mass.). Labeled peptides were diluted to 5 nM in 0.15 M Sucrose/PBS and added (1.0 ml/well) to transfected COS7 cells. The binding reaction was incubated in the dark at room temperature for 90 minutes. Cells were rinsed thoroughly with PBS+0.05% Tween-20 to remove unbound peptide. Cells were then fixed with 4% Paraformaldehyde (5 minutes).
Following fixation, cells were permeabilized in PBS+0.1% Tween-20 for 10 minutes, rinsed thoroughly with PBS, and blocked in BSA (10 mg/ml) for 10 minutes. Cells were incubated with rabbit anti-p75^NTR antibody (1:10,000 dilution) for 30 minutes. Excess antibody was removed with PBS washes. Cells were then incubated with Alexa-488 goat anti-rabbit antibody (1:500 dilution, Invitrogen). Cells were again rinsed thoroughly with PBS and mounted in Vectashield mounting media plus DAPI (Vector Laboratories, Inc., Burlingame, Calif.).
COS7 cells were seeded at 10,000 cells/well onto an 18 mm coverslip in a 12-well plate. Cells were allowed to settle overnight in a cell culture incubator (NuAire NU-8600, NuAire, Inc., Plymouth, Minn.) set at 37° C. and 5% CO2. Cells were transfected with pCMV-eGFP (Clontech Laboratories, Inc., Burlingame, Calif.) or pCMV-SPORT6-p75 (ATCC) using Fugene HD (Roche Diagnostics Corp., Indianapolis, Ind.) and were incubated overnight. The binding assays were carried out according to Horton et al. with modifications. Synthetic TUF1 peptides (TUF1[43-54] (SEQ ID NO:1) and TUF1[24-40] (SEQ ID NO:3)) were generated (via Sigma Genosys, Sigma-Aldrich, St. Louis, Mo.) and were conjugated per manufacturer's recommendation with DyLight 549 NHS Ester (Thermo Fisher Scientific Inc., Waltham, Mass.), which have similar spectra to Cy3 dye. Unconjugated dye was removed with a dye removal column (Thermo Fisher Scientific Inc., Waltham, Mass.). Labeled peptides were diluted to 5 nM in 0.15M Sucrose/PBS and added (1.0 ml/well) to transfected COS7 cells. The binding reaction was incubated in the dark at room temperature for 90 min. Cells were rinsed thoroughly with PBS+0.05% Tween-20 to remove unbound peptide. Cells were then fixed with 4% Paraformaldehyde (5 minutes).
Following fixation, cells were permeabilized in PBS+0.1% Tween-20 for 10 minutes, rinsed thoroughly with PBS, and blocked in BSA (10 mg/ml) for 10 minutes. Cells were incubated with rabbit anti-p75^NTR antibody (1:10,000 dilution) for 30 minutes. Excess antibody was removed with PBS washes. Cells were then incubated with Alexa-488-goat anti-rabbit antibody (1:500 dilution, Invitrogen Corp., Carlsbad, Calif.). […]

| binding to p75^NTR (p75^NTR) | binding to p75^NTR (p75^NTR; listed as TUF1^24-40) | Substance | TUF1 expression [1] |
| --- | --- | --- | --- |
| – | – | Angiotensin II (DRVYIHPF; Angiotensin-2; UniProt P01019 25-32, looked up) [angiotensin II (Sigma-Aldrich) used to stimulate adrenal glomerulosa cells] | activates TUF1 expression |
| did not bind cells expressing p75^NTR | did not bind the p75^NTR | TUF1[24-40]: synthetic TUF1 peptide, SEQ ID NO:3, without similarity to neurotrophic factors (NGF and BDNF) (GTIKLTPRLSKDAYSEM; Artifical sequence; TUF1 polypeptide) | – |
